Measured values as given in article PMC10107836 (Chembiochem, 2022).
Where “and” joins values, the source holds several entries; their conditions need not be identical. Equal entries are not always repeated.

Molecular target: extraviral domain of SARS-CoV-2 spike protein (aa 1-1213) (SARS-CoV-2) (UniProt P0DTC2)
Assay: SPR

pineapple-derived jacalin-related lectin AcmJRL (natural protein)
Kd: 3.3 µM and 11.1 µM | koff: 0.0034 s⁻¹ | kon: 1060 M⁻¹ s⁻¹
